Read-outs that look alike come from different tables or passages of the source. Non-standard residues stand in square brackets, D forms with d. Residues, ends and D or L forms follow the SMILES beside them. *: point of attachment. DOTA = O=C(O)CN1CCN(CC(=O)O)CCN(CC(=O)*)CCN(CC(=O)O)CC1; 1Nal = N[C@@H](Cc1cccc2ccccc12)C(=O)O; NMeNle = CCCC[C@H](NC)C(=O)O

One data set in a line: in vivo. The settings on record: mouse; for tissue uptake at 4 h: BALB/c nude (athymic), total radioactivity. Here is the method:
Biodistribution studies were performed in female athymic BALB/c nude mice (Charles River Laboratories, Sulzfeld, Germany) with A431-CCK2R xenografts induced and animals treated as described previously. The study was approved by the Austrian Ministry of Science (2022–0.351.553). […] Statistical analysis was performed on the data sets using the unpaired two-tailed t-test with a significance level of 0.05.

The subject of the next data set is A431-CCK2R cells. The settings on record: cited from earlier work; for Bmax: A431-CCK2R cells, nM printed only with the first value of the sentence; for Kd: same cell line (A431-CCK2R), nM printed only with the PP-F11N value.
The next data set addresses T1, human CCK2R (Homo sapiens, UniProt P32239).
T1 construct: expressed in transfected cells; host or cells: A431 human epidermoid carcinoma cells, stably transfected (plasmid pCR3.1), provided by Dr. Luigi Aloj
T1 sequence (P32239 1-447): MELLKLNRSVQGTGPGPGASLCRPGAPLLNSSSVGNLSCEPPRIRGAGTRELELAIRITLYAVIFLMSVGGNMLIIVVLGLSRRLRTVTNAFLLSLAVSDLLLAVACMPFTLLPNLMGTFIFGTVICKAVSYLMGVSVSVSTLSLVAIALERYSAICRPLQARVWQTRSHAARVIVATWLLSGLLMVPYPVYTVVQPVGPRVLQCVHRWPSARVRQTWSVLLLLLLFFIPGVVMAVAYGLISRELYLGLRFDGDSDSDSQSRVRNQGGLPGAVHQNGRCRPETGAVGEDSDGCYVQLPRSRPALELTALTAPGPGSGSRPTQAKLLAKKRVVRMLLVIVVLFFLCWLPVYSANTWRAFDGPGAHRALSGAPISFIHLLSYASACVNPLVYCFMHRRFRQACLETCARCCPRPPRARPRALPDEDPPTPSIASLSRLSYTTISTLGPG
The data set can be described thus: Saturation binding on A431-CCK2R cells. The settings on record: 4°C, read-out: dissociation constant (Kd). Here is the method: The saturation binding assay was performed on A431-CCK2R cells plated 2 days prior to the assay at a density of 1×10^6 cells per well in 6-well plates. […] Before recovering the cell-associated radioactivity from the wells by using 1 M NaOH (two times), cells were washed twice with ice-cold phosphate-buffered saline (PBS). The radioactivity was then counted using a gamma counter (2480 Wizard2 3”, PerkinElmer Life Sciences and Analytical Instruments, formerly Wallac Oy, Turku, Finland) and non-specific binding was subtracted. For normalization to the number of cells, cells from three different wells were trypsinized and counted by Beckman Coulter Vi-CELL AS cell viability analyser (Beckman Coulter, Fullerton, CA, USA). Three independent assays were performed in triplicate. Binding curves were analysed using GraphPad Prism version 10.1.2 for Windows (GraphPad Software, Boston, Massachusetts USA).

The test system of another data set is A431-CCK2R xenografts. In words: Biodistribution up to 7 days p.i. / preclinical pharmacokinetics in A431-CCK2R xenografted BALB/c nude mice. It counts as in vivo. The following applies: mouse, in vivo. Here is the method: (§1) The study was approved by the Dutch animal ethics committee (CCD) of the Radboud University and the Nijmegen Medical Centre animal ethics committee (RUDEC) (2020–0007–020). Mice were inoculated with A431-CCK2R cells (2 × 10^6 in 200 μL DMEM medium) at an age of 8–10 weeks. […] Samples were collected, weighted and measured in a gamma counter together with a 1% standard of the injected dose. Results were expressed as percentage of injected activity per gram of tissue (%IA/g), and tumour-to-organ activity ratios were calculated for selected organs. The biodistribution data were used to calculate the kinetics in mouse organs and A431-CCK2R xenografts. A detailed description of the dosimetry calculations and extrapolation from mice to humans can be found in the Supplementary Materials. A one-compartment distribution model was used to characterize the time-activity curves, which were fitted with a single-exponential function implementing Graphpad Prism software. […] Animal dosimetry was performed using the RADAR mouse phantom. The mouse phantom organ weights were used to translate the time-integrated activity concentration coefficients [TIAC] into the regular TIAC. The absorbed dose per given activity was calculated using the MIRD equation (medical internal radiation dose) and the S values obtained from the 25 g RADAR mouse phantom.

Test in data set [1]: as above
It counts as in vivo. The following applies: female, mouse, iv, total radioactivity. Here is the method:
as §1

[2] abbreviates: female, iv, 20 pmol peptide, kidney uptake.
The mark [3] stands for this setting: female, iv, 20 pmol peptide, stomach uptake.
The mark [4] stands for this setting: female, iv, 20 pmol peptide, tumour uptake.
Where [5] appears, read: BALB/c nude (athymic), in vivo, 20 pmol of peptide, Uptake, A431-CCK2R tumour.
The mark [6] stands for this setting: BALB/c nude (athymic), in vivo, 20 pmol of peptide, Uptake, blood.
Where [7] appears, read: BALB/c nude (athymic), in vivo, 20 pmol of peptide, Uptake, heart.
The mark [8] stands for this setting: BALB/c nude (athymic), in vivo, 20 pmol of peptide, Uptake, kidney.
[9] abbreviates: BALB/c nude (athymic), in vivo, 20 pmol of peptide, Uptake, liver.
Setting [10] is: BALB/c nude (athymic), in vivo, 20 pmol of peptide, Uptake, lung.
Setting [11] is: BALB/c nude (athymic), in vivo, 20 pmol of peptide, Uptake, pancreas.
Setting [12] is: BALB/c nude (athymic), in vivo, 20 pmol of peptide, Uptake, stomach.
Where [13] appears, read: athymic BALB/c nude, in vivo, Uptake, femur.
[14] abbreviates: athymic BALB/c nude, in vivo, Uptake, heart.
Where [15] appears, read: athymic BALB/c nude, in vivo, Uptake, intestine.
The mark [16] stands for this setting: athymic BALB/c nude, in vivo, Uptake, muscle.
The mark [17] stands for this setting: athymic BALB/c nude, in vivo, Uptake, spleen.

As to `CCCC[C@@H](C(=O)N[C@@H](CC(=O)O)C(=O)N[C@@H](Cc1cccc2ccccc12)C(N)=O)N(C)C(=O)[C@H](Cc1c[nH]c2ccccc12)NC(=O)CNC(=O)[C@H](Cc1ccc(O)cc1)NC(=O)[C@H](C)NC(=O)[C@@H](CCC(=O)O)NC(=O)CN1CCN(CC(=O)O)CCN(CC(=O)O)CCN(CC(=O)O)CC1` [[^111In]In-DOTA-MGS5, metal not drawn], the tissue uptake at 4 h in “in vivo” (setting [2]) was 3.9 ± 0.5 %ID/g; in the data set “in vivo” (setting [3]) it was 8.2 ± 2.4 %ID/g.

On to “[^177Lu]Lu-DOTA-PP-F11: 177Lu-labelled DOTA-(DGlu)6-Ala-Tyr-Gly-Trp-Met-Asp-Phe-NH2 (AYGWMDF; 177Lu-DOTA-(DGlu)6, C-terminal amide; printed: Ala-Tyr-Gly-Trp-Met-Asp-Phe-)”, for which, in the data set with A431-CCK2R cells, the Bmax is reported as 0.65 ± 0.06 nM and the Kd is 41.7 ± 9.7 nM.

In the case of `CSCC[C@H](NC(=O)[C@H](Cc1c[nH]c2ccccc12)NC(=O)CNC(=O)[C@H](Cc1ccc(O)cc1)NC(=O)[C@H](C)NC(=O)[C@@H](CCC(=O)O)NC(=O)CN1CCN(CC(=O)O)CCN(CC(=O)O)CCN(CC(=O)O)CC1)C(=O)N[C@@H](CC(=O)O)C(=O)N[C@@H](Cc1cccc2ccccc12)C(N)=O` [[^111In]In-DOTA-[1Nal^8]MG11, metal not drawn] ({DOTA}-[dE]AYGWMD[1Nal]-NH2), the tissue uptake at 4 h in the data set “in vivo” (setting [2]) was 1.1 ± 0.1 %ID/g; in the data set “in vivo” (setting [3]), 1.2 ± 0.3 %ID/g; in “in vivo” (setting [4]), 1.2 ± 0.2 %ID/g.

On to “[^111In]In-DOTA-PP-F11: 111In-labelled DOTA-(DGlu)6-Ala-Tyr-Gly-Trp-Met-Asp-Phe-NH2 (AYGWMDF; 111In-DOTA-(DGlu)6, C-terminal amide; printed: Ala-Tyr-Gly-Trp-Met-Asp-Phe-)”, for which, in the data set with A431-CCK2R cells, the Bmax is recorded as 1.21 ± 0.06 nM and the Kd is 15.9 ± 2.2 nM.

With `CCCC[C@@H](C(=O)N[C@@H](CC(=O)O)C(=O)N[C@@H](Cc1ccccc1)C(N)=O)N(C)C(=O)[C@H](Cc1c[nH]c2ccccc12)NC(=O)CNC(=O)[C@H](Cc1ccc(O)cc1)NC(=O)[C@H](C)NC(=O)[C@@H](CCC(=O)O)NC(=O)CN1CCN(CC(=O)O)CCN(CC(=O)O)CCN(CC(=O)O)CC1` [[^111In]In-DOTA-[(N-Me)Nle^6]MG11, metal not drawn] ({DOTA}-[dE]AYGW[NMeNle]DF-NH2), the tissue uptake at 4 h is 3 ± 0.3 %ID/g in “in vivo” (setting [2]), 2.9 ± 0.6 %ID/g in “in vivo” (setting [3]) and 12.3 ± 4.2 %ID/g in the data set “in vivo” (setting [4]).

`CCCC[C@@H](C(=O)N[C@@H](CC(=O)O)C(=O)N[C@@H](Cc1cccc2ccccc12)C(N)=O)N(C)C(=O)[C@H](Cc1c[nH]c2ccccc12)NC(=O)CNC(=O)[C@H](Cc1ccc(O)cc1)NC(=O)[C@H](C)NC(=O)[C@@H](CCC(=O)O)NC(=O)CN1CCN(CC(=O)O)CCN(CC(=O)O)CCN(CC(=O)O)CC1` [[^177Lu]Lu-DOTA-MGS5, metal not drawn]: the Kd at human CCK2R came out at 5.25 ± 1.61 nM. In addition, the “Uptake, blood” value in the data set on A431-CCK2R xenografts (female, BALB/c nude (athymic), iv, 20 pmol of peptide, 24 h) is 0.013±0.002 %IA/g. Also, the “half-life of blood clearance” value with A431-CCK2R xenografts (female, athymic BALB/c nude) is listed as 2.8 h. The “biological half-life of clearance from the tumour” value in the data set with A431-CCK2R xenografts is on record as 18.2 h. Also, the tissue uptake at 1 h in data set [1] (BALB/c nude (athymic), A431-CCK2R tumour xenograft, 20 pmol of peptide, A431-CCK2R xenograft, 1h p.i., i.v., n = 5, read-out: Uptake, A431-CCK2R tumour) stood at 68.1 ± 10 %ID/g; in data set [1] (setting [6]) it was 1.9 ± 0.4 %ID/g; in data set [1] (setting [7]), 0.8 ± 0.2 %ID/g; in data set [1] (setting [8]) it was 3.7 ± 0.4 %ID/g; in data set [1] (setting [9]), 1.3 ± 0.2 %ID/g; in data set [1] (setting [10]) it was 4.6 ± 1.9 %ID/g. The tissue uptake at 1 h in data set [1] (setting [11]) came out at 1.7 ± 0.5 %ID/g; in data set [1] (setting [12]), 8.1 ± 0.9 %ID/g; in data set [1] (setting [13]), 0.3 ± 0.1 %ID/g; in data set [1] (setting [15]) it was 1.1 ± 0.3 %ID/g; in data set [1] (setting [16]), 0.3 ± 0.2 %ID/g; in data set [1] (setting [17]) it was 0.6 ± 0.1 %ID/g. For the same compound, the tissue uptake at 24 h was determined as 28.9 ± 7.2 %ID/g in data set [1] (setting [5]); 0.01 ± 0.002 %ID/g in data set [1] (setting [6]); 0.05 ± 0.01 %ID/g in data set [1] (setting [7]); 2 ± 0.2 %ID/g in data set [1] (setting [8]); 0.5 ± 0.1 %ID/g in data set [1] (setting [9]); 0.2 ± 0.1 %ID/g in data set [1] (setting [10]). Further, the tissue uptake at 24 h in data set [1] (setting [11]) was determined as 0.9 ± 0.2 %ID/g; in data set [1] (setting [12]) it was 4.9 ± 0.4 %ID/g; in data set [1] (setting [13]), 0.052 ± 0.008 %ID/g; in data set [1] (setting [15]), 0.17 ± 0.02 %ID/g; in data set [1] (setting [16]) it was 0.04 ± 0.01 %ID/g. The tissue uptake at 72 h is 12.6 ± 0.3 %ID/g in data set [1] (setting [5]); 0.004 ± 0.002 %ID/g in data set [1] (setting [6]); 1 ± 0.1 %ID/g in data set [1] (setting [8]); 0.2 ± 0.1 %ID/g in data set [1] (setting [9]); 0.1 ± 0.04 %ID/g in data set [1] (setting [10]); 0.7 ± 0.2 %ID/g in data set [1] (setting [11]). Further, the tissue uptake at 72 h in data set [1] (setting [13]) turned out to be 0.032 ± 0.007 %ID/g; in data set [1] (setting [14]), 0.026 ± 0.005 %ID/g; in data set [1] (setting [15]), 0.1 ± 0.01 %ID/g; in data set [1] (setting [16]), 0.01 ± 0.003 %ID/g. The tissue uptake at 168 h in data set [1] (setting [5]) came to 2 ± 0.5 %ID/g; in data set [1] (setting [6]), 0.01 ± 0.01 %ID/g; in data set [1] (setting [8]) it was 0.4 ± 0.1 %ID/g; in data set [1] (setting [9]) it was 0.08 ± 0.01 %ID/g; in data set [1] (setting [10]), 0.04 ± 0.01 %ID/g; in data set [1] (setting [11]), 0.6 ± 0.1 %ID/g. For the same compound, the tissue uptake at 168 h in data set [1] (setting [12]) was determined as 1.3 ± 0.1 %ID/g; in data set [1] (setting [13]), 0.06 ± 0.02 %ID/g; in data set [1] (setting [14]), 0.018 ± 0.004 %ID/g; in data set [1] (setting [15]), 0.04 ± 0.01 %ID/g; in data set [1] (setting [16]), 0.018 ± 0.005 %ID/g; in data set [1] (setting [17]), 0.09 ± 0.01 %ID/g. The tissue uptake at 4 h was 22.9 ± 4.7 %ID/g in the data set “in vivo” (uptake in A431-CCK2R xenografts) and 31.9 ± 12.8 %ID/g in the data set “in vivo” (female, iv, 20 pmol peptide, uptake in A431-CCK2R xenografts). For the same compound, in “in vivo” (female, athymic BALB/c nude, tumour uptake), the tissue uptake is roughly 23 %ID/g.

Usually Kd stands for the equilibrium constant for the complex coming apart.

Values taken from PMC11839890 (European Journal of Nuclear Medicine and Molecular Imaging, 2024).
